Experimental data as given in the supplement of paper PMC12764529.
± gives the half width of the 95% confidence interval.

What was measured:
[1] = folding stability dG unfold from trypsin proteolysis; higher = more stable
Procedure, shortened: (§1)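 How resistant each design was to proteolysis was captured as K50, inferred by Bayesian fitting of sequencing counts. Unfolding free energy was then derived relative to a sequence-predicted unfolded-state K50 and a shared folded-state K50, per protease or combined. Digestion used trypsin and chymotrypsin at 11 threefold-diluted concentrations plus a no-protease condition, on mini-proteins under 80 residues without cysteine in a PA-tagged cDNA display construct. Designs were kept only when AlphaFold2 dimer inter-PAE was above 15.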

[2] = folding stability dG unfold from chymotrypsin proteolysis; higher = more stable
Procedure, shortened: as §1

[3] = folding stability dG unfold (combined trypsin and chymotrypsin); higher = more stable
Procedure, shortened: as §1

SPFRLKIEIDEVGPAGQEIRVKLEIWSDNKPIEMEHTIKVPNGRLYRIRMNIYMPPDGNFQLNLDVYPLDSA [r9_255_TrROS]
folding stability dG unfold [1]: 4.29 ± 0.23 kcal/mol
folding stability dG unfold [2]: 6.34 ± 0.37 kcal/mol
folding stability dG unfold [3]: > 6 kcal/mol

SPIYVFIEKTNNKRTIMIQNPENGWWVEIKFNGGEITFPIDSVEDFLDELKDLGWPIEITKIRPLPPGQLSA [r9_1102_TrROS]
folding stability dG unfold [1]: 2.79 ± 0.17 kcal/mol
folding stability dG unfold [2]: 3.32 ± 0.12 kcal/mol
folding stability dG unfold [3]: 3.16 ± 0.16 kcal/mol

SPKEPQKVRIRIRNPENGKPIWEFDIWFPPDGGVKVKIEHPNEKHEYPMPADEALDFLENHPFKIEEIEVSA [r9_470_TrROS]
folding stability dG unfold [1]: 0.739 ± 0.18 kcal/mol
folding stability dG unfold [2]: 0.301 ± 0.2 kcal/mol
folding stability dG unfold [3]: 0.567 ± 0.33 kcal/mol

SPLERLLRAILNAPADTTIVVPLPDDLVAVIRIEPATTELDGVPYRFLVARIEIRNPDGVLLGELTLVLPLS [r1_386_TrMRF]
folding stability dG unfold [1]: 3.88 ± 0.086 kcal/mol
folding stability dG unfold [2]: 5.78 ± 0.091 kcal/mol
folding stability dG unfold [3]: 5.63 ± 0.11 kcal/mol

SPLKPGDVYTEPGGPLLRVEKVTLSEDPNKFPKKLEIELVPIPPPTPTLEEYTLPNGERRTLVLFEFDGPSA [r9_914_JUSTAS]
folding stability dG unfold [1]: -0.308 ± 0.31 kcal/mol
folding stability dG unfold [2]: -1.17e-05 ± 0.5 kcal/mol
folding stability dG unfold [3]: -0.217 ± 0.42 kcal/mol

SPLTLTFENPENGIRVELVFDPETPEVHAKVYAPNGELLSEETFEVEEKKITLRFNLEGKEFELEIELDESA [r9_385_TrMRF]
folding stability dG unfold [1]: 3.86 ± 0.12 kcal/mol
folding stability dG unfold [2]: 4.25 ± 0.082 kcal/mol
folding stability dG unfold [3]: 4.16 ± 0.11 kcal/mol

SPNFERYEHTIEIELPNGRRIKIDVEMYRPPDGNPWARIKIEVEDNNGEPKKKDIWMPMNDAEKAIEDLLSA [r9_189_TrROS]
folding stability dG unfold [1]: 1.9 ± 0.14 kcal/mol
folding stability dG unfold [2]: 1.85 ± 0.093 kcal/mol
folding stability dG unfold [3]: 1.99 ± 0.43 kcal/mol

SPPGLRIRIESPDNGEPIPFPIPPNVEVDVKRDKNGNFIATIKIQNPENGKKWTIEIDAPMRIVEIEPVPSA [r9_467_TrROS]
folding stability dG unfold [1]: 1.6 ± 0.076 kcal/mol
folding stability dG unfold [2]: 3.35 ± 0.16 kcal/mol
folding stability dG unfold [3]: 2.76 ± 0.21 kcal/mol

SPPHWMIMPTVERKDPNGEKKTVTYMIPVPPGNWDKMLDNIADEAGDPDLKIKEIEPSKNGFIMIKLKVKSA [r9_1101_TrROS]
folding stability dG unfold [1]: 0.497 ± 0.17 kcal/mol
folding stability dG unfold [2]: 0.604 ± 0.48 kcal/mol
folding stability dG unfold [3]: 0.0989 ± 0.54 kcal/mol

SPPIEIKPAPENYLIAKIIDPKTNKVYYILIPKDAKLDQPALVYHPDKKEYIPLKEILDLLKKGYPLSISSA [r9_250_TrMRF]
folding stability dG unfold [1]: 2.09 ± 0.075 kcal/mol
folding stability dG unfold [2]: 2.43 ± 0.059 kcal/mol
folding stability dG unfold [3]: 2.35 ± 0.14 kcal/mol

SPPITFFRVPAEYDEPNGKRTIKVRIWRIRDVEKDPNGGPKMDMEPQPVTFKLPVPPGAPIPPGDWIFAFSA [r9_277_TrROS]
folding stability dG unfold [1]: 1.57 ± 0.16 kcal/mol
folding stability dG unfold [2]: 0.315 ± 0.35 kcal/mol
folding stability dG unfold [3]: 0.831 ± 0.34 kcal/mol

SPPITIEIEYERNPDNGMFPLKVKAWNPDGEPIGEREIPFKGSPEEMRERAMKEAKELADKNGWPIEIEWSA [r9_31_TrROS]
folding stability dG unfold [1]: -0.436 ± 0.17 kcal/mol
folding stability dG unfold [2]: 0.637 ± 0.18 kcal/mol
folding stability dG unfold [3]: 0.331 ± 0.19 kcal/mol

SPPNFEVKEVEIPVPWEEIKELLPPGFTDIEPTGDRWTLHFKHPGYFVMIEIQWDPEDNQFPVKISVFKMSA [r9_604_TrROS]
folding stability dG unfold [1]: 2.59 ± 0.11 kcal/mol
folding stability dG unfold [2]: 3.76 ± 0.054 kcal/mol
folding stability dG unfold [3]: 3.35 ± 0.19 kcal/mol

SPPNFRMEQEEIEIEIRFPDGWRVSVEIEIHRMRFPDGDEMLHIDIKVEADPNNPGMRKLAKNLVEEIINSA [r9_908_TrROS]
folding stability dG unfold [1]: 1.24 ± 0.21 kcal/mol
folding stability dG unfold [2]: 2.14 ± 0.21 kcal/mol
folding stability dG unfold [3]: 1.85 ± 0.41 kcal/mol

SPRIEVRKLPDGTELVRIEIPTPEGNPVVVEATVTYDPETGTVTQEVTLTDPNVPPEVKALLESFTLTVPSA [r9_715_JUSTAS]
folding stability dG unfold [1]: 1.12 ± 0.019 kcal/mol
folding stability dG unfold [2]: 1.54 ± 0.028 kcal/mol
folding stability dG unfold [3]: 1.4 ± 0.042 kcal/mol

SPSPAAKNMKPIRIRLRDPNGKKYKIENINVGPDGQFQIRIKFPGNTHTQTLPPGAPFELPPDRIEEVEISA [r9_993_TrROS]
folding stability dG unfold [1]: 0.808 ± 0.079 kcal/mol
folding stability dG unfold [2]: 0.971 ± 0.2 kcal/mol
folding stability dG unfold [3]: 0.959 ± 0.092 kcal/mol

SPVPLDVPPGSRAVLVFRFPDGSRAVAVFDPVTGKATVTFYPPDGSKVTRTFDGPDLADLPPGVERIAPLSA [r9_1110_TrMRF]
folding stability dG unfold [1]: 1.77 ± 0.11 kcal/mol
folding stability dG unfold [2]: 2.7 ± 0.12 kcal/mol
folding stability dG unfold [3]: 2.34 ± 0.14 kcal/mol

SPVVLPLTLGDRPILARLYPGEGVLEVRDPDGRLVGRATVTPNRINLVFRALDDDTTLVFELPVLPPDDPSA [r9_963_TrMRF]
folding stability dG unfold [1]: 1.66 ± 0.07 kcal/mol
folding stability dG unfold [2]: 1.82 ± 0.045 kcal/mol
folding stability dG unfold [3]: 1.84 ± 0.12 kcal/mol

SRKFLNDPNIDKVEPTIVIPMSPEERKELAQNLANGIYNYLREHGWPLPPNIEIKIIPFPSPEQMKKMMKSA [r9_204_TrROS]
folding stability dG unfold [1]: 0.6 ± 0.15 kcal/mol
folding stability dG unfold [2]: 1.09 ± 0.17 kcal/mol
folding stability dG unfold [3]: 0.901 ± 0.13 kcal/mol

SRKISIWIPPDDPMMTPEEIANKLAQQGYPVEIDDVEWNPENGWVVITVEIEEPNGEPIADIEVWIPWNDSA [r9_879_TrROS]
folding stability dG unfold [1]: 1.83 ± 0.098 kcal/mol
folding stability dG unfold [2]: 1.6 ± 0.057 kcal/mol
folding stability dG unfold [3]: 1.65 ± 0.19 kcal/mol

SRLTVTSEVDPNGNSSTSTITYYDPSTGQPYTLTVTITKLPDGTYKVTITFPSNSTTTTFTLAPDETINLSA [r9_1220_JUSTAS]
folding stability dG unfold [1]: 2.58 ± 0.2 kcal/mol
folding stability dG unfold [2]: 3.27 ± 0.055 kcal/mol
folding stability dG unfold [3]: 3.04 ± 0.22 kcal/mol

SSASAMAPLPVEVYTLTVTVVKPGGEEVGTYTFTFNSPEEAKAFLEAFAKEKGLTIKKATLTRTPDTSLSSA [r9_1226_JUSTAS]
folding stability dG unfold [1]: 2.7 ± 0.12 kcal/mol
folding stability dG unfold [2]: 4.59 ± 0.054 kcal/mol
folding stability dG unfold [3]: 4.16 ± 0.1 kcal/mol

SSEKVELAKKYLKEKGIPIKEFKEITPTGITILAPNGKWITISVKPGDLNEITINPKKSSDGGYENDIPYSA [r9_809_JUSTAS]
folding stability dG unfold [1]: 0.215 ± 0.049 kcal/mol
folding stability dG unfold [2]: 0.92 ± 0.09 kcal/mol
folding stability dG unfold [3]: 0.669 ± 0.088 kcal/mol

SSGIAEIVAANPGVSLEELAKLIKEKLKAELPTDEPIEIKMTKSPDGYKITITIKDENNWHSDEYYVKPGSA [r9_805_JUSTAS]
folding stability dG unfold [1]: 2.95 ± 0.2 kcal/mol
folding stability dG unfold [2]: 3.14 ± 0.16 kcal/mol
folding stability dG unfold [3]: 3.07 ± 0.19 kcal/mol

SSIEEQIREIFEPKGMEITDVKTEKKPDGTTVAKFTYTDPVKDEKGNPISTLTKEGTVVFKNGKIVEVEESA [r9_519_JUSTAS]
folding stability dG unfold [1]: 2.27 ± 0.052 kcal/mol
folding stability dG unfold [2]: 2.779 ± 0.016 kcal/mol
folding stability dG unfold [3]: 2.61 ± 0.049 kcal/mol

SSIIIPGLPAEQARQLAKEFAEHYPNYDVKVEYHPDNGMITVDIEMPHKDPDGKPKGWRKMNINIHIWDPSA [r9_378_TrROS]
folding stability dG unfold [1]: 0.868 ± 0.12 kcal/mol
folding stability dG unfold [2]: 1.53 ± 0.17 kcal/mol
folding stability dG unfold [3]: 1.23 ± 0.2 kcal/mol

SSIPLDVPPGERVVRKGVFPDGSELTATYDPTTGRWTVTYYPPDGSVRTSVVPGAALASLPPGFTETRLESA [r9_1110_JUSTAS]
folding stability dG unfold [1]: 1.45 ± 0.043 kcal/mol
folding stability dG unfold [2]: 2.28 ± 0.034 kcal/mol
folding stability dG unfold [3]: 2.02 ± 0.14 kcal/mol

SSITVVETREERVTLPDGREVTRRETRVVELSEEELRRLLRERLREALREAGIEEVTEEDLDSPEVLAALSA [r9_263_TrROS_Hall]
folding stability dG unfold [1]: 1.2 ± 0.054 kcal/mol
folding stability dG unfold [2]: 2.2 ± 0.032 kcal/mol
folding stability dG unfold [3]: 1.86 ± 0.12 kcal/mol

SSLENLEPVSYDVTVEEGPTSPSGVTYTRITITEPGGSTATVTVTPESLTLDYSVRDKARVEALVRELLESA [r9_662_JUSTAS]
folding stability dG unfold [1]: 0.957 ± 0.019 kcal/mol
folding stability dG unfold [2]: 0.989 ± 0.11 kcal/mol
folding stability dG unfold [3]: 1.04 ± 0.064 kcal/mol

SSLTVRLELEVTFEDGLRVRVEVEAELREVDGKLELRVRVRVEVRPLPPPPPPPPPPRLSDEQLEELRKRSA [r9_965_TrROS_Hall]
folding stability dG unfold [1]: 0.786 ± 0.19 kcal/mol
folding stability dG unfold [2]: 2.34 ± 0.092 kcal/mol
folding stability dG unfold [3]: 1.9 ± 0.19 kcal/mol

SSMPTTVTLTNPADSTTTPLPVPSNISVETTTLPDGSTAGTVTVTDPSTGKTTTITFSGPNTLTSTSATSSA [r9_467_JUSTAS]
folding stability dG unfold [1]: 1.05 ± 0.03 kcal/mol
folding stability dG unfold [2]: 0.398 ± 0.26 kcal/mol
folding stability dG unfold [3]: 0.804 ± 0.13 kcal/mol
